Measured values as given in PMC12570964 (Nature Microbiology, 2025).

Target: T1, mouse IFIT3 (M. musculus Ifit3, co-expressed with Ifit2 in E. coli) (M. musculus, UniProt Q64345 8-389)
T1 construct: also called interferon-induced protein with tetratricopeptide repeats 3
T1 sequence: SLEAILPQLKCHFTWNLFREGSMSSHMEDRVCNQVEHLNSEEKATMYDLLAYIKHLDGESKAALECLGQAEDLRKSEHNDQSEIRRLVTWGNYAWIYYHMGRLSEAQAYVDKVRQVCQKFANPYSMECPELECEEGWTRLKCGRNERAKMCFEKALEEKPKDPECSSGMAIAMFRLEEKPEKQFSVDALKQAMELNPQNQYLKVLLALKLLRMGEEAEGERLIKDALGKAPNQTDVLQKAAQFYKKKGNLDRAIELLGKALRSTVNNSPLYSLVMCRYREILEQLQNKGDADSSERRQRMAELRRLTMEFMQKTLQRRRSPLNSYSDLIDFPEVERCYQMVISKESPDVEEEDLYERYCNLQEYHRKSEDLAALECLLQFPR
Test: cryo-EM structure
Details: both partners purified

B1: mouse IFIT2 (M. musculus Ifit2, co-expressed with Ifit3 in E. coli) (natural protein, UniProt Q64112 1-472, looked up)
chain: MSTTSKESLVCNLRQLKCHFTWNLIAEDESLDEFEDRVFNKDEFQNSEFKATMCNILAYVKHCRGLNEAALQCLGEAEGFIQQQHPDQVEIRSLVTWGNYAWVYYHMGQFSKAQAYLDKVKQVCKKFSSPYRIENPALDCEEGWARLKCTKNQNERVKVCFQKALEKDPKNPEFTSGWAIAFYRLDDWPARNYCIDSLEQAIQLSPDNTYVKVLLALKLDAVHVHKNQAMALVEEALKKDPSAIDTLLRAARFYCKVYDTDRAIQLLRKALEKLPNNAYVHYYMGCCYRSKVHHMLNRREMVFSGDRKKLEELIQLAVNHLRKAEEIKEMLEYSCSFLADLYIIAKKYDEADYYFQKELSKDLPPGPKQLLHLRYGNFQFFQMKRQDKAIYHYMEGVKIKKKTIPQKKMREKLQRIALRRLHEDESDSEALHILAFLQENGGGQQADKDSERGVDSANQVPSASLDEDGAEY
notes: also called interferon-induced protein with tetratricopeptide repeats 2; source: E. coli Rosetta pLysS, co-expressed with Ifit3, purified (nickel column, TEV cleavage, Superdex 200 size exclusion)
stoichiometry N: 1
